The values that follow come from patent US20250122266A1, “SMART SINGLE-DOMAIN INTRABODIES WITH PRECISION SWITCHES FOR BIOMEDICAL APPLICATIONS” (THE TEXAS A&M UNIVERSITY SYSTEM, priority 2020, published 2025).

Test [1] has as its target NE-tethered mCh-lamin A (UniProt P02545). Kind of test: NE/NP ratio of GFP signal in HeLa cells, before and after light.
Test [2] concerns the target YFP-ORAI1 (UniProt Q96D31). In words: cell-based or functional assay.
Test [3] deals with Recombinant SARS-COV-2 Spike RBD (SARS-COV-2) (UniProt P0DTC2).
Test [4] has the same target. In words: ELISA on immobilised RBD; read as the value without caffeine.

Like-named read-outs stand apart in the source and are kept apart here.

Sequence of mCherry-COSMO-STIM1ct (Q13586 other isoform, or with tags, fused parts or gaps): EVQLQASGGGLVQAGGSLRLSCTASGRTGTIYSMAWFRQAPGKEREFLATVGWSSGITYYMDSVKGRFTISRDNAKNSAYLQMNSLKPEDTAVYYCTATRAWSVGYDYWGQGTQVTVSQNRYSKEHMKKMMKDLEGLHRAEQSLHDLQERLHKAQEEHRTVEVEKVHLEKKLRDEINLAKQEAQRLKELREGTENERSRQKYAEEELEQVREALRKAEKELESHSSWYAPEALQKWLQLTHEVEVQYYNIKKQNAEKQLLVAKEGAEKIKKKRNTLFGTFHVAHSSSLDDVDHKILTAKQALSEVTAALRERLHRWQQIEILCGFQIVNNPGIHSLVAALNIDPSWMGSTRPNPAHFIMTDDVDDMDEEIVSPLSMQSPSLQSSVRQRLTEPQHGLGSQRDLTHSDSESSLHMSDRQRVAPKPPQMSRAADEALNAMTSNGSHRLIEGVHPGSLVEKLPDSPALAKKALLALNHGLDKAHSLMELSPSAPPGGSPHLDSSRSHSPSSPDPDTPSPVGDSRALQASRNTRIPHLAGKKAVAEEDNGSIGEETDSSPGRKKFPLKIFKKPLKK
Sequence of YFP-ORAI1 (Q96D31 whole entry): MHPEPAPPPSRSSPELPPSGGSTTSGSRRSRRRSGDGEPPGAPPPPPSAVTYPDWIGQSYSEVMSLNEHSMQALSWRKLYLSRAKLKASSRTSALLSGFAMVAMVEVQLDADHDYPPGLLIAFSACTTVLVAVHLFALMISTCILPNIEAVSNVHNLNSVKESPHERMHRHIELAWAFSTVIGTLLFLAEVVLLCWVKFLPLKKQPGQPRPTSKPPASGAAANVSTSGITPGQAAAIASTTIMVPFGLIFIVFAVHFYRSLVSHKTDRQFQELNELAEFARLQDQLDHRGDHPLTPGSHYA

In the case of “GFP-sunbody variant S0 (LOV2 fused to the N-terminus of LaM8) (VHH)”, the increase in the NE/NP ratio after photostimulation in test [1] amounted to 10%. “mCherry-COSMO-STIM1ct (from UniProt Q13586 233-685)”: the calcium influx (GCaMP6s) after 1 µM caffeine, activation half-life in test [2] stood at 1.63 min. With MBP-COSMO-VHH72, the apparent binding affinity in test [3] worked out at 18 nM; in test [4], 29 nM.
